Target: T1, Recombinant human Prominin-1 with C-terminal FLAG-tag, forcedly expressed on DG44 cells (human, UniProt O43490 20-865)
T1 construct: whole, on cells; Expressed in DG44 cells; also called Prominin-1 recombinant protein; cells forcedly expressing Prominin-1; not shown: FLAG-tag artificially added to the C terminus
T1 sequence (looked up): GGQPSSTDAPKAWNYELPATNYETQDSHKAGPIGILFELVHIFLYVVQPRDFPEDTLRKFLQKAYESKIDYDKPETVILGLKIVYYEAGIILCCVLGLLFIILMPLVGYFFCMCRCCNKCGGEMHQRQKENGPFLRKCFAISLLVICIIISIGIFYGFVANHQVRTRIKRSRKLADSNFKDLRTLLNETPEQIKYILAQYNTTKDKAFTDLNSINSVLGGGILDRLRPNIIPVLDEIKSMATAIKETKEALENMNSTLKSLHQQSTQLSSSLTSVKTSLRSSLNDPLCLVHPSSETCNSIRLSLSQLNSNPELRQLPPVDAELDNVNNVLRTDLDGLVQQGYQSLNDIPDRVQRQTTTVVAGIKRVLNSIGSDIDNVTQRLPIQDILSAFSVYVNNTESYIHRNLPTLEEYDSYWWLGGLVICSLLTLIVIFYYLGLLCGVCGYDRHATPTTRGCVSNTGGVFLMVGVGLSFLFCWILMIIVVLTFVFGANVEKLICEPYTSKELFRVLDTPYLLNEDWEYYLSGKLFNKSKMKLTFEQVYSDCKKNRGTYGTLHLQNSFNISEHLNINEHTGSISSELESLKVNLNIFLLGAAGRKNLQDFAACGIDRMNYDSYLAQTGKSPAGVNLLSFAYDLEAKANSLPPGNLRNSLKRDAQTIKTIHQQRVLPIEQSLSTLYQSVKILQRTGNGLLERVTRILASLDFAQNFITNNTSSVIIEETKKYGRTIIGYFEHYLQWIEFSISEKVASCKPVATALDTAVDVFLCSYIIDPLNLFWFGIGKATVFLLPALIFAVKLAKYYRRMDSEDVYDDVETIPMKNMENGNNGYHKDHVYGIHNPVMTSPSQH
Test: flow cytometry on DG44 cells forcedly expressing FLAG-tagged human Prominin-1

B1: AC133.1 antibody (mouse IgG1, produced by hybridoma HB-12346) (antibody, V domains shown)
VH: QVQLQQSGAELVRPGASVKLSCKASGYTFSDFEMHWVKQTPVHGLEWIGDIDPGTGDTAYNLKFKGKATLTTDKSSSTAYMELRSLTSEDSAVYYCTLGAFVYWGQGTLVTVSA
VL: DVVVTQTPLSLPVSFGDQVSISCRSSQSLANSYGNTYLSWYLHKPGQSPQLLIYGISNRFSGVPDRFSGSGSGTDFTLKISTIKPEDLGMYYCLQGTHQPYTFGGGTKLEIKR
notes: The rest is mouse IgG1 heavy chain and Ig kappa light chain; Purified from hybridoma supernatant on Protein G; also called AC133 antibody; A133.1 antibody
B1: binds.

From patent publication US20100209439A1 (FORERUNNER PHARMA RESEARCH, published 2010)
